Source: publication PMC12087824 (2025)

Molecular target: human CD40 receptor (hCD40) (human, UniProt P25942 21-277)
Experiment: BLI

Sequence of human CD40 receptor (hCD40) (P25942 21-277): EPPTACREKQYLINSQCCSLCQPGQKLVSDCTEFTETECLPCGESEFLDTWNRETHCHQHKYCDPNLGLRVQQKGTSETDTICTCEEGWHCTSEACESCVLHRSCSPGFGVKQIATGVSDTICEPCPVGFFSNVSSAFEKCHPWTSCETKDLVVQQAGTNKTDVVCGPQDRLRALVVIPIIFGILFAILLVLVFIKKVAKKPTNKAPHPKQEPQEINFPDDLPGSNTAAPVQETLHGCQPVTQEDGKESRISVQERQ

Kd: 288 nM
B1: DARPin WT_(CD40) binding the human CD40 receptor (designed binder)
chain: GSDLGKKLLQAARAGQLDEVRELLKAGADVNAKDTWGFTPLHIAAESGHLEIVEVLLKAGADVNAKDVQGRTPLHIAAHSGHLEIVEVLLKAGADVNAKDFRGWTPLHLAAWSGHLEIVEILLKAGADVNAQDKSGKTPADLAARAGHQDIAEVLQKAA
